Experimental data taken from publication doi:10.1101/492876.

Experiments:
[1] = target: elongation factor thermo-unstable (EF-Tu), hexahistidine-tagged (E. coli) (UniProt P0CE47); test: SEC
[2] = target: preformed oligomeric EF-Tu (^OligoEF-Tu) (E. coli) (UniProt P0CE47); test: ITC

## elongation factor thermo-unstable (EF-Tu), hexahistidine-tagged (from UniProt P0CE47 1-394) (natural protein)
[1]
  stoichiometry N: 2

## reduced form of Hsp33 (^RHsp33) (from UniProt P0A6Y5 1-292) (natural protein)
[1]
  stoichiometry N: 1
[2]
  Kd: 580 nM
  dH: -18.8 kcal/mol
  stoichiometry N: 2.37
